Data as given in patent publication US20230304012A1.

Assays:
[1] = target: ΔIg3-MuSK (mouse, on primary myotubes from ΔIg3-MuSK mice) (mouse) (UniProt Q61006); assay: cell-based or functional assay
[2] = target: full length MuSK (wild type mouse, on primary myotubes) (mouse) (UniProt Q61006); assay: cell-based or functional assay

- Wnt11 transcription (qRT-PCR), fold increase after 25 ng/mL BMP4 for 2 hours in primary myotubes [1]: 2.6 fold
- Wnt11 transcription (qRT-PCR), fold increase after 25 ng/mL BMP4 for 2 hours in primary myotubes [2]: 5.8 fold
Substance: BMP4 (ligand)
